Data published in the supplement of paper PMC10567573.

B1: KLHL14 (parent)
chain: WLYCYDPVMDVWARKQDMNTKRAI
B2: FBXO39 (parent)
chain: RVFKARIYTNRYETNEEDKTLQEI

Variants of: B1
Test: protein stability index of a GFP-peptide fusion (GPS, HEK-293T) (PSI 1-6); higher = more stable
Details: c terminus: a fixed tail appended
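Also: lentivirally expressed fusions sorted by FACS into six bins by GFP to DsRed ratio, PSI derived from sequencing read proportions per bin multiplied by bin number.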

Point of comparison: W1L, protein stability index 2.53. Against it:
- W1C — lower, 2.27
- W1K — higher, 2.55
- W1H — higher, 3.4
- W1Q — higher, 3.33
- W1A — higher, 2.56
- W1S — higher, 3.06
- W1D — higher, 4.41
- W1N — higher, 3.29
- W1V — lower, 1.63
- W1G — lower, 2.4
- W1P — higher, 2.88
- W1E — higher, 3.72
- W1Y — lower, 2.25
- W1R — higher, 2.55
- W1I — lower, 1.92
- W1M — higher, 2.62
- W1F — lower, 1.99
- W1T — higher, 3.09
- L2A — lower, 2.24

Variants of: B2
Test: as above
Details: c terminus: a fixed tail appended

Point of comparison: K19I, protein stability index 2.58. Against it:
- N15P — higher, 3.01
- N15C — lower, 1.86
- N15D — higher, 2.86
- N15K — lower, 2.28
- N15V — lower, 2.12
- N15F — lower, 1.99
- N15Q — lower, 2.55
- N15G — lower, 2.5
- N15I — higher, 2.9
- N15S — higher, 3.14
- N15H — higher, 3.27
- N15M — higher, 3.15
- N15L — lower, 2.27
- N15T — higher, 3
- N15E — higher, 2.96
- N15Y — lower, 2.06
- N15W — higher, 2.61
- N15A — higher, 2.92
- L21T — higher, 2.97
- L21C — lower, 2.21
- L21H — higher, 3.76
- L21R — higher, 2.97
- L21N — higher, 3.26
- L21P — higher, 3.27
- L21E — higher, 3.38
- L21Q — higher, 3.18
- L21M — higher, 3.24
- L21S — higher, 2.93
- L21I — higher, 2.62
- L21W — lower, 2.5
- L21Y — lower, 1.99
- L21F — lower, 2.52
- L21V — higher, 2.86
- L21K — lower, 2.5
- L21D — higher, 3.88
- L21A — higher, 2.9
- L21G — higher, 3.2
- Y12H — higher, 2.79
- Y12D — higher, 3.89
- Y12F — higher, 3.33
- Y12E — higher, 3.58
- Y12K — higher, 2.99
- Y12W — lower, 2.34
- Y12T — higher, 3.29
- Y12A — higher, 3.15
- Y12L — lower, 2.1
- Y12P — higher, 2.91
- Y12Q — higher, 3.88
- Y12I — higher, 3.29
- Y12M — lower, 2.13
- Y12G — higher, 3.13
- Y12S — higher, 3.36
- Y12N — higher, 3.13
- Y12C — lower, 2.07
- E16I — higher, 3.1
- E16C — lower, 2.38
- E16A — lower, 2.2
- E16R — lower, 2.33
- E16S — higher, 2.6
- E16G — lower, 2.33
- E16Q — lower, 2.08
- E16W — lower, 2.27
- E16L — lower, 1.75
- E16Y — lower, 1.29
- E16N — lower, 1.74
- E16F — lower, 1.45
- E16H — the same, 2.58
- E16V — lower, 1.92
- E16P — lower, 1.89
- E16D — higher, 2.88
- E16T — lower, 2.28
- Q22G — higher, 3.19
- Q22S — lower, 1.12
- Q22T — lower, 1.98
- Q22M — lower, 2.5
- Q22D — higher, 3
- Q22H — lower, 1.64
- Q22C — higher, 3.48
- Q22I — lower, 1.4
- Q22K — lower, 2.38
- Q22V — lower, 1.75
- Q22Y — higher, 2.6
- Q22F — lower, 1.76
- Q22W — lower, 1.79
- Q22N — lower, 2.49
- Q22R — higher, 2.91
- Q22L — lower, 2.33
- Q22A — higher, 3.02
- I24N — higher, 2.64
- I24C — higher, 2.61
- I24M — lower, 2.25
- I24V — higher, 3.44
- I24P — higher, 3.21
- I24F — lower, 2.55
- I24Y — higher, 3.17
- I24Q — higher, 3.32
- I24K — higher, 2.98
- I24T — higher, 2.75
- I24S — higher, 3.36
- I24R — higher, 3.22
- I24D — higher, 3.26
- I24W — lower, 2.34
- I24E — higher, 3.48
- I24H — higher, 3.7
- E17R — lower, 2.43
- E17C — lower, 2.03
- E17M — lower, 1.89
- E17G — lower, 1.4
- E17S — lower, 2.1
- E17D — higher, 3.12
- E17F — lower, 1.63
- E17Y — higher, 2.72
- E17T — higher, 2.83
- E17I — lower, 1.59
- E17K — lower, 2.24
- E17Q — lower, 2.33
- E17P — lower, 2.41
- E17L — lower, 2.41
- E17W — lower, 2.27
- E17N — lower, 1.98
- E17H — lower, 2.02
- D18W — lower, 2.18
- D18E — lower, 2.48
- D18F — lower, 1.67
- D18K — higher, 2.7
- D18Q — higher, 2.78
- D18G — lower, 2.53
- D18R — lower, 2.38
- D18Y — higher, 2.78
- D18C — lower, 2.33
- D18V — lower, 2.4
- D18I — higher, 2.68
- D18M — lower, 2.22
- D18H — lower, 2.16
- D18P — lower, 2.56
- D18T — lower, 2.36
- D18N — lower, 2.25
- D18L — lower, 2.46
- D18S — lower, 1.71
- D18A — higher, 3.19
- R11K — higher, 2.88
- R11D — higher, 3.23
- R11C — lower, 2.05
- R11H — lower, 2.34
- R11E — higher, 3.57
- R11Q — higher, 3.2
- R11W — lower, 2.19
- R11A — lower, 2.01
- R11I — lower, 2.46
- R11Y — lower, 2.5
- R11L — higher, 2.59
- R11S — higher, 3.38
- R11G — higher, 3.36
- R11V — lower, 2.18
- R11T — higher, 3.75
- R11N — lower, 2.53
- R11M — higher, 2.93
- R11P — higher, 3.36
- K19W — lower, 2.54
- K19R — higher, 4
- K19S — higher, 3.39
- K19M — lower, 2.3
- K19A — lower, 2.15
- K19P — higher, 2.91
- K19H — higher, 2.92
- K19T — higher, 2.79
- K19Q — higher, 3.23
- K19F — higher, 2.61
- K19N — higher, 2.83
- K19L — lower, 2.44
- K19V — higher, 2.62
- K19C — higher, 3.04
- K19G — higher, 3.62
- K19Y — lower, 2.57
- K19E — higher, 3.84
- E13N — lower, 2
- E13Q — higher, 2.98
- E13H — lower, 1.85
- E13T — lower, 2.15
- E13W — lower, 2.53
- E13S — higher, 2.81
- E13R — higher, 2.79
- E13I — lower, 1.92
- E13L — higher, 3.1
- E13K — lower, 2.4
- E13V — lower, 1.99
- E13M — higher, 2.6
- E13Y — lower, 1.69
- E13D — lower, 2.48
- E13G — higher, 2.81
- E13A — higher, 3.08
- E13F — lower, 2.07
- E23D — the same, 2.58
- E23F — lower, 1.93
- E23P — lower, 2.39
- E23M — lower, 2.14
- E23Q — lower, 2.21
- E23I — lower, 1.88
- E23K — higher, 2.74
- E23T — lower, 2.44
- E23H — higher, 2.74
- E23V — lower, 2.41
- E23G — lower, 2.19
- E23W — lower, 1.74
- E23N — lower, 2.15
- E23S — lower, 2.32
- E23L — lower, 2.42
- E23Y — lower, 2.14
- E23R — lower, 2.05
- E23C — lower, 2.13
- I7P — higher, 4.12
- I7T — higher, 3
- I7Q — higher, 2.74
- I7W — higher, 3.15
- I7K — lower, 2.24
- I7L — higher, 2.9
- I7S — higher, 3.39
- I7N — higher, 2.7
- I7M — higher, 2.67
- I7Y — lower, 2.39
- I7R — lower, 2.43
- Y8P — lower, 2.45
- Y8L — higher, 3.21
- Y8H — higher, 3.27
- Y8W — lower, 2.16
- Y8R — higher, 3.15
- Y8S — higher, 3.13
- Y8M — higher, 2.77
- Y8N — higher, 3.97
- Y8F — higher, 2.91
- Y8K — higher, 3.22
- Y8E — higher, 3.93
- Y8I — higher, 2.73
- Y8G — higher, 3.46
- Y8T — higher, 2.93
- Y8D — higher, 4.51
- Y8C — higher, 3.78
- Y8A — higher, 3.84
- Y8V — higher, 3.08
- Y8Q — higher, 2.77
- T20L — lower, 2.38
- T20D — higher, 3.48
- T20F — higher, 2.74
- T20G — lower, 1.79
- T20A — higher, 2.87
- T20V — higher, 3.47
- T20M — higher, 3.06
- T20W — lower, 2.49
- T20Q — higher, 2.78
- T20E — lower, 2.53
- T20R — higher, 2.77
- T20P — higher, 2.73
- T20I — lower, 1.76
- T20K — lower, 2.53
- T20N — lower, 2.57
- T20S — higher, 3.2
- T20C — lower, 2.55
- T20Y — lower, 2.17
- T9F — lower, 1.82
- T9N — higher, 2.87
- T9M — higher, 3.24
- T9E — higher, 3.24
- T9G — lower, 2.49
- T9W — lower, 1.92
- T9S — lower, 2.18
- T9V — lower, 2.32
- T9R — higher, 3.04
- T9Y — lower, 2.16
- T9Q — higher, 2.73
- T9I — lower, 2.21
- T9P — higher, 3.15
- T9K — higher, 3.08
- T9H — lower, 2.47
- T9A — higher, 3.18
- T9L — lower, 2.54
- T9D — higher, 3.38
- N10V — lower, 2.15
- N10L — lower, 2.11
- N10T — lower, 2.45
- N10P — lower, 2.21
- N10Q — higher, 3.36
- N10C — lower, 2.29
- N10S — higher, 3.06
- N10A — lower, 2.31
- N10D — higher, 2.61
- N10G — higher, 2.75
- N10E — higher, 3.31
- N10H — higher, 2.82
- N10M — higher, 3.04
- N10I — higher, 2.73
- N10K — higher, 3.01
- N10W — lower, 2.2
- N10F — lower, 1.93
- N10R — higher, 2.6
- T14K — lower, 2.5
- T14N — lower, 2.21
- T14C — lower, 2
- T14W — lower, 1.66
- T14Q — higher, 2.62
- T14I — lower, 2.28
- T14R — lower, 2.36
- T14V — lower, 2.06
- T14F — lower, 2.52
- T14E — higher, 2.62
- T14P — higher, 3.2
- T14L — higher, 3.06
- T14G — lower, 2.29
- T14H — lower, 2.5
- T14S — higher, 3.12
- T14A — lower, 1.65
- T14D — higher, 3.34
- T14Y — higher, 2.67
- T14M — higher, 3.75
